IC50 data for one molecule are collected here from patent US6395306 (PAN PACIFIC PHARMACEUTICALS, dated 2002).

The test addresses T1, CXCR2 (human, UniProt P25025 1-360).
T1 sequence: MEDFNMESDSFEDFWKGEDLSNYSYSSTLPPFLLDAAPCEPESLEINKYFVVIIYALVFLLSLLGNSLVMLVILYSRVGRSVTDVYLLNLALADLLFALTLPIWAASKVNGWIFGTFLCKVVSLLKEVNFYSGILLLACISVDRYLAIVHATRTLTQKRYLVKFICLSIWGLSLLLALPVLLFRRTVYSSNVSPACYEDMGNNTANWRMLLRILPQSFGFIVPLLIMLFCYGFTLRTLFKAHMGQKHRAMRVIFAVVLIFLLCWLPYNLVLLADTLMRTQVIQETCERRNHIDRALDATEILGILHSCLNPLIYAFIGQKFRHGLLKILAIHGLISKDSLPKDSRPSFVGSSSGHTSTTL

B1: PX3.101 protein purified from honeybee venom (other)
chain: GGFGGFGGFGGLGGRGKCPSNEIFSRCDGRCQRFCPNVVPKPLCIKICAPGCVCRLGYLRNKKKVCVPRSKCG
With B1, inhibition was half-maximal at 500 nM (IC50).
